The target of the test is T1, human SOD1^G93A (Zn/Cu superoxide dismutase, glycine to alanine at position 93) (human, UniProt P00441 1-154, G93A).
T1 construct: Zn/Cu superoxide dismutase (SOD1), human, with the ALS-linked mutation G93A; The introduction calls SOD1 a 32 kDa homodimer; also called mutant SOD1^G93A; mutant SOD1; source: E. coli BL-21, grown without Zn2+ and Cu2+ supplements, purified to homogeneity under non-denaturing conditions
Briefly: co-IP; purified SOD1^G93A (2 µg) incubated with recombinant D-DT (0.2, 0.5, 1, 2, 5 and 10 µg); immunoprecipitation overnight at 4 °C with B8H10 antibody (misfolded SOD1) crosslinked to protein G Dynabeads; IP buffer 0.05 M Tris pH 7.4, 0.4 M NaCl, 0.5% Nonidet P-40; bound and unbound fractions immunoblotted for SOD1 and D-DT. The note with it: both partners purified. A general note: A western blot detects proteins with antibodies after separation by electrophoresis.

T1 sequence (P00441 whole entry G94A): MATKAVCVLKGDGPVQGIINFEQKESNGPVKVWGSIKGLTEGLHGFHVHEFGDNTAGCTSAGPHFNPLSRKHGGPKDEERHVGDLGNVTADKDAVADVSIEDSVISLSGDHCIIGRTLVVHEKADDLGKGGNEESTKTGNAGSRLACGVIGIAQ

B1: recombinant human D-dopachrome tautomerase (D-DT/MIF-2) (enzyme)
chain: PFLELDTNLPANRVPAGLEKRLCAAAASILGKPADRVNVTVRPGLAMALSGSTEPCAQLSISSIGVVGTAEDNRSHSAHFFEFLTKELALGQDRILIRFFPLESWQIGKIGTVMTFL
notes: D-dopachrome tautomerase (D-DT, MIF-2), human; also called recombinant D-DT; source: recombinant
As to B1, the binding result is “binds”.

The values are drawn from paper PMC9187739, “MIF homolog d-dopachrome tautomerase (D-DT/MIF-2) does not inhibit accumulation and toxicity of misfolded SOD1” (Scientific Reports, 2022).
